These results are taken from patent publication US20190338048A1.

Like-named read-outs stand apart in the source and are kept apart here.

Test [1] deals with CR8071 lambda light chain S122D_E124Q_T131R (L1 of design 3974, system C). Briefly: SMCA: H1, L1, H2, L2 co-expressed, protein A, LC-MS.
For test [2], the target named is CR8071 lambda light chain S122D_K129T_S176E_Y178E (L1 of design 3967, system C). The description is as above.
In test [3] the target is CR8071 lambda light chain L1 S122D_Y178K (design 3954, System C). Described as above.
Test [4] addresses CR8071 lambda light chain L1 S122D_K129T_S176E_Y178E (designs 3951 and 3967, System C). Described as above.
Test [5] has the same target. The description is as above. The source holds these as a separate data set.
Test [6] deals with CR8071 lambda light chain L1 Y178K (design 3957, System C). The test is described as above.
Test [7] has as its target CR8071 lambda light chain L1, design 4320 (T116F_K129T_V133D_S176F). The experiment in a line: SMCA: H1,L1,H2,L2 co-expressed, protein A, LC-MS.
Test [8] has as its target Design 3951 L1: CR8071 lambda light chain S122D_K129T_S176E_Y178E. Briefly: SMCA: H1, L1, H2, L2 co-expressed, protein A, LC-MS.
Test [9] addresses Design 3954 L1: CR8071 lambda light chain S122D_Y178K. Described as above.
The target in test [10] is Design 3957 L2: SGN-CD19a kappa light chain Q124E_V133D_T178E. Described as above.
Test [11] shares this target. The description is as above. The source holds these as a separate data set.
Test [12] deals with SGN-CD19a kappa light chain L2 S121K_S131K_S176K (design 3951). The test is described as above.
Test [13] concerns the target SGN-CD19a kappa light chain L2 Q124E_V133D_L135W (design 3972, Systems B and C). The description is as above.
In test [14] the target is SGN-CD19a kappa light chain L2 Q124E_V133D_T180D (design 3971, Systems B and C). The description is as above.
Test [15] concerns the target SGN-CD19a kappa light chain L2 Q124E_V133D_L135W (design 3972, Systems B and C). The test is described as above. This is another data set of the same source.
Test [16] concerns the target SGN-CD19a kappa light chain L2 Q124E_V133D_T180D (design 3971, Systems B and C). Described as above. This is another data set of the same source.
Test [17] has as its target SGN-CD19a kappa light chain L2 Q124E_V133D_T178E (design 3957, Systems B and C). Described as above.
Test [18] has the same target. Described as above. This is another data set of the same source.
Test [19] addresses SGN-CD19a kappa light chain L2 S121K_S176E_T178E (design 3954, Systems B and C). Described as above.
Test [20] has the same target. The description is as above. This is another data set of the same source.
In test [21] the target is SGN-CD19a kappa light chain L2, design 4320 (Q124K_L135A_T178R). Briefly: SMCA: H1,L1,H2,L2 co-expressed, protein A, LC-MS.
Test [22] concerns the target SGN-CD19a kappa light chain V133G_L135W_S176D_T180E (L2 of design 3987, systems B and C). Briefly: SMCA: H1, L1, H2, L2 co-expressed, protein A, LC-MS.
For test [23] the target is unchanged. The test is described as above. This is another data set of the same source.
For test [24], the target named is SGN-CD19a kappa light chain S121K_Q124R_T178R (L2 of design 3967, systems B and C). The description is as above.
Test [25] has the same target. Described as above. The source holds these as a separate data set.
Test [26] addresses SGN-CD19a kappa light chain Q124E_V133D_L135W (L2 of design 3972, systems B and C). Described as above.
Test [27] addresses SGN-CD19a kappa light chain Q124E_V133D_T180D (L2 of design 3971, systems B and C). The description is as above.
In test [28] the target is SGN-CD19a kappa light chain Q124E_V133D_L135W (L2 of design 3972, systems B and C). The description is as above. The source holds these as a separate data set.
The target of test [29] is SGN-CD19a kappa light chain Q124E_V133D_T180D (L2 of design 3971, systems B and C). The description is as above. This is another data set of the same source.
Test [30] concerns the target SGN-CD19a kappa light chain S121K_Q124E_V133D (L2 of design 3974, systems B and C). The description is as above.
For test [31] the target is unchanged. Described as above. This is another data set of the same source.
For test [32], the target named is SGN-CD19a kappa light chain Q124E_V133D_L135A (L2 of design 3980, system B). The description is as above.
Test [33] concerns the target SGN-CD19a kappa light chain S121K_V133I_S176D_T178E (L2 of design 3997, system B). The description is as above.

In test [1], “CR8071 heavy chain A125R_L143D_K145T (H1 of design 3974, system C)” came in with a % H1L1 Pairing of 59.9% and a Change in % H1L1 Pairing with respect to wild type of 11.5%.
With “CR8071 heavy chain A125R_S188K (H1 of design 3967, system C)”, in test [2], the % H1L1 Pairing came to 96.7% and the Change in % H1L1 Pairing with respect to wild type was 28.6%.
Turning to “CR8071 heavy chain H1 A125R_K145T_S188E (design 3954, System C)”, in test [3], the % H1L1 Pairing came out at 89% and the Change in % H1L1 Pairing with respect to wild type amounted to 40.6%.
With “CR8071 heavy chain H1 A125R_S188K (designs 3951 and 3967, System C)”, in [4], the % H1L1 Pairing was 97.5% and the Change in % H1L1 Pairing with respect to wild type was 29.4%. In [5], this substance displayed a % H1L1 Pairing of 96.7% and a Change in % H1L1 Pairing with respect to wild type of 28.6%.
In test [6], “CR8071 heavy chain H1 K145T_S188E (design 3957, System C)” gave a % H1L1 Pairing of 87.2% and a Change in % H1L1 Pairing with respect to wild type of 38.8%.
“CR8071 heavy chain H1, design 4320 (L143K_F174G)”: in test [7], the % H1L1 Pairing stood at 96.6% and the Change in % H1L1 Pairing with respect to wild type came to 14.3%.
As for “Design 3951 H1: CR8071 heavy chain A125R_S188K”, in [8], the % H1L1 Pairing turned out to be 97.5% and the Change in % H1L1 Pairing with respect to wild type was found to be 29.4%.
Consider “Design 3954 H1: CR8071 heavy chain A125R_K145T_S188E”, for which, in [9], the % H1L1 Pairing came to 89% and the Change in % H1L1 Pairing with respect to wild type was determined as 40.6%.
On to “Design 3957 H2: SGN-CD19a heavy chain L143R_S188K”, for which, in test [10], the % H2L2 Pairing was determined as 85.4% and the Change in % H2L2 Pairing with respect to wild type amounted to 31.2%. Besides, in test [11], the % H2L2 Pairing worked out at 99.7% and the Change in % H2L2 Pairing with respect to wild type is 20.1%.
Take “SGN-CD19a heavy chain H2 K145T_S186E_K228D (design 3951)”: in [12], the % H2L2 Pairing was determined as 97.1% and the Change in % H2L2 Pairing with respect to wild type is 25.8%.
With “SGN-CD19a heavy chain H2 L143R (designs 3971 and 3972, Systems B and C)”, the % H2L2 Pairing in [13] worked out at 99.7%; in test [14], 99.3%; in test [15], 99.8%; in test [16] it was 99.8%. For the same substance, the Change in % H2L2 Pairing with respect to wild type is 45.5% in [13], 45.1% in test [14], 20.2% in test [15] and 20.2% in [16].
For the substance “SGN-CD19a heavy chain H2 L143R_S188K (design 3957, Systems B and C)”, the results for the % H2L2 Pairing in [17] and in [18] were 85.4% and 99.7%, respectively. The Change in % H2L2 Pairing with respect to wild type in test [17] came to 31.2%; in test [18], 20.1%.
For the substance “SGN-CD19a heavy chain H2 S188K_K228D (design 3954, Systems B and C)”, the values for the % H2L2 Pairing in test [19] and in test [20] were 61.8% and 98.7%, respectively. The Change in % H2L2 Pairing with respect to wild type was 7.6% in test [19] and 19.1% in [20].
Consider “SGN-CD19a heavy chain H2, design 4320 (L143E_K145T_Q179E_V190F)”, for which, in test [21], the % H2L2 Pairing amounted to 81.4% and the Change in % H2L2 Pairing with respect to wild type came to 21.5%.
As to “SGN-CD19a heavy chain L124R_S186K (H2 of design 3987, systems B and C)”, in test [22], the % H2L2 Pairing turned out to be 98.1% and the Change in % H2L2 Pairing with respect to wild type was 43.9%. Besides, in test [23], the % H2L2 Pairing came out at 99.3% and the Change in % H2L2 Pairing with respect to wild type was 19.7%.
As to “SGN-CD19a heavy chain L143E_K145T_Q179E_K228D (H2 of design 3967, systems B and C)”, in [24], the % H2L2 Pairing turned out to be 98.6% and the Change in % H2L2 Pairing with respect to wild type came out at 44.4%. In addition, in test [25], the % H2L2 Pairing came out at 100% and the Change in % H2L2 Pairing with respect to wild type is 28.7%.
As for “SGN-CD19a heavy chain L143R (H2 of designs 3971 and 3972, systems B and C)”, the % H2L2 Pairing in test [26] was determined as 99.7%; in [27], 99.3%; in [28] it was 99.8%; in test [29], 99.8%. For the same substance, the Change in % H2L2 Pairing with respect to wild type was 45.5% in [26], 45.1% in test [27], 20.2% in test [28] and 20.2% in test [29].
In the case of “SGN-CD19a heavy chain L143R_K228D (H2 of design 3974, systems B and C)”, the % H2L2 Pairing was 92.6% in test [30] and 99.8% in test [31]. Moreover, the Change in % H2L2 Pairing with respect to wild type was found to be 38.4% in test [30] and 20.2% in test [31].
With “SGN-CD19a heavy chain L143R_V190F (H2 of design 3980, system B)”, in test [32], the % H2L2 Pairing is 82.6% and the Change in % H2L2 Pairing with respect to wild type came out at 28.4%.
Turning to “SGN-CD19a heavy chain S188K_K228D (H2 of design 3997, system B)”, in [33], the % H2L2 Pairing was found to be 53% and the Change in % H2L2 Pairing with respect to wild type was -1.2%.
